Data reported in patent US20130137856A1, “PROTEIN BINDING DOMAINS STABILIZING FUNCTIONAL CONFORMATIONAL STATES OF GPCRS AND USES THEREOF” (priority 2010, published 2013).
Entries after “also recorded” stand apart in the source; their conditions may differ.

How the values were obtained:
β2AR [1] = test: Size exclusion chromatography of nanobody with purified detergent-solubilized β2AR; format: binding, human; details: 20 μM β2AR bound to an agonist, 40 μM nanobody
Experimental: The mixture was then analyzed by Size Exclusion Chromatography (SEC), which separates protein on the basis of size. Seven of the nanobodies bound to purified β2AR and migrated as a complex on SEC only in the presence of agonist and not an inverse agonist (an example is shown in FIG. 1, Panel a, FIG. 3 and FIG. 4).
Agonist selective nanobodies were identified by size exclusion chromatography following incubation of 20 μM agonist or inverse agonist- (carazolol-) bound β2AR-365N for one hour at RT in the absence or presence of 40 μM nanobody.

β2AR [2] = molecular target: T1, β2AR (Homo sapiens, UniProt P07550); test: Monobromobimane (mBBr) fluorescence of labeled purified β2AR; format: biochemical; details: for mBBr fluorescence change of isoproterenol-bound β2AR with nanobody (active state): 1 μM nanobody plus full agonist isoproterenol
Source text: To investigate the effect of nanobodies on movement of the cytoplasmic domain of TM6 we labeled purified β2AR at C265 with monobromobimane (mBB-β2AR). […] In mBB-β2AR, the addition of agonist together with G protein results in larger fluorescent changes than either agonist or G protein alone. This is compatible with the cooperative interactions observed in agonist competition binding assays (Yao et al. 2009).
Purified β2AR was reacted with 1:1 equivalent of monobromobimane (mBBr, Invitrogen) in 100 mM NaCl, 20 mM HEPES, pH 7.5, 0.1% dodecyl maltoside and incubated overnight on ice in the dark. The fluorophore-labeled receptor was purified right before use by gel filtration on a desalting column equilibrated with the same buffer. […] All experiments were performed at 25° C. […] To determine the effect of nanobodies and ligands, three individual labeled protein samples were incubated with 1 μM nanobody or 10 μM Isoproterenol or both. Emission spectra of the samples were taken after 1 hour incubation.

β2AR [3] = molecular target: T1, β2AR; test: [3H]-DHA competition binding on Sf9 insect cell membranes expressing β2AR, with or without nanobody; set-up: recombinant β2AR truncated at Gly365 (β2AR-365); made in house; host or cells: Sf9 insect cells (membranes); details: agonist competition binding with versus without nanobody
Source text: Panel b: Dose-response competition binding experiments on Sf9 insect cell membranes expressing β2AR.

β2AR [4] = molecular target: T1, β2AR; test: Fluorescent (CPM) thermal stability assay of detergent-solubilized β2AR
Experimental: (§1) The effect of conformational selective nanobodies on the thermostability and the subsequent aggregation of the β2AR receptor was analyzed using a fluorescent thermal stability assay (FIG. 13) and size exclusion chromatography (FIG. 14).
The fluorescent thermal stability assay makes use of the thiol-specific fluorochrome N-[4-(7-diethylamino-4-methyl-3-coumarinyl)phenyl]maleimide (CPM) to measure the chemical reactivity of the native cysteines embedded in the protein interior as a sensor for the overall integrity of the folder state of membrane proteins (Alexandrov et al. 2008). For the fluorescent thermal stability assay, detergent-solubilized receptor (in 0.1% dodecylmaltoside, 100 mM NaCl and 20 mM Hepes pH 7.5) was pre-incubated with isoproterenol (10 μM) in the presence or absence of a 2:1 molar excess of Nb80 for one hour at RT. Samples were then mixed with CPM fluorophore and incubated for two minutes at temperatures ranging from 10° C. to 94° C. and fluorescence emission was collected. […] Unfolding transitions could be described by a simple two-state model, including the native (folded) and the denaturated state, representing the lower and upper plateaus of the melting curves.

human β1AR = human β1AR (Homo sapiens, UniProt P08588); test: [3H]-DHA competition binding on β1AR with and without Nb80
Source text: Active state stabilizing Nanobodies that are cross-reactive to related receptors can be used as a tool to stabilize a conformational state of those related receptors. […] Using the PISA server (Krissinel & Henrick, 2007) and based on the crystal structure of the Nb80-β2AR complex, 30 β2AR AA residues were identified to interact with Nb80 in the β2AR-Nb80 interface. […] The remaining interface residues are lysines in β2AR and have been substituted by arginines in β1AR corresponding to conserved substitutions (shown in grey boxes in FIG. 17). It thus appears that both receptors share a very similar binding site for Nb80. Based on this analysis, we also measured the effect of Nb80 on the affinity of […] for the agonist isoproterenol and the inverse agonist CGP20712A (FIG. 18).

[5] = Effect of Nb80 on ligand affinity of an unrelated receptor; format: binding; details: data not shown
β2AR-T4L = test: [3H]-DHA competition binding on β2AR-T4L reconstituted in HDL particles; set-up: species or system human
β2AR [6] = molecular target: T1, β2AR; test: Bimane fluorescence spectroscopy on mBB-β2AR reconstituted in HDL particles; details: Nb80 with 10 μM isoproterenol
β2AR [7] = molecular target: T1, β2AR; test: [3H]-DHA competition binding on β2AR reconstituted in HDL particles; set-up: recombinant β2AR truncated at Gly365 (β2AR-365); made in house; host or cells: Sf9 insect cells (membranes)
β2AR [8] = molecular target: T1, β2AR; test: Competition radioligand binding on commercial insect cell membranes with full-length human β2AR, Nb80 versus irrelevant Nb; details: radioligand displacement with Nb80 versus irrelevant Nanobody
β2AR [9] = molecular target: T1, β2AR; test: Temperature-induced aggregation of β2AR analyzed by SEC; details: DDM-solubilized β2AR, 10 μM isoproterenol, 2:1 molar excess of Nb80, 10 minutes at increasing temperatures
Experimental: as §1
We also analyzed the effect of Nb80 on the thermal unfolding and aggregation of the agonist-bound receptor by size exclusion chromatography (SEC). For this experiment, dodecylmaltoside-solubilized receptor was pre-incubated with isoproterenol (10 μM) in the presence or absence of a 2:1 molar excess of Nb80 for 45 minutes at RT. Samples were next incubated for 10 minutes at increasing temperatures and subsequently analyzed by SEC (FIG. 14).

human β1AR, sequence (P08588 whole entry): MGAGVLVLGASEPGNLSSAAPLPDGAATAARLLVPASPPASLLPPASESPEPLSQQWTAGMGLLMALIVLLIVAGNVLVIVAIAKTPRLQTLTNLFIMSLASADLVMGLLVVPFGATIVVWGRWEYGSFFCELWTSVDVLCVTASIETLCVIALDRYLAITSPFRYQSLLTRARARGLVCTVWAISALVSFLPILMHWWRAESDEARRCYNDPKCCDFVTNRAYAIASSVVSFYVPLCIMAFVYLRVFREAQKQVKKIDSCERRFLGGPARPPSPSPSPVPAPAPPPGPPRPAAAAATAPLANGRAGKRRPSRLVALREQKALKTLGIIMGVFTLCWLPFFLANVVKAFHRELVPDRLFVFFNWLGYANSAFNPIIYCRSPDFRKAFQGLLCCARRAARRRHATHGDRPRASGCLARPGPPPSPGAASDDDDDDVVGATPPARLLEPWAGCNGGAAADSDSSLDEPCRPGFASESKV

B1: NB65: β2AR-specific nanobody, SEQ ID NO:5 (protein, listed as Lama glama)
VHH: QVQLQESGGGLVQAGGSLRLSCAASGSIFSINTMGWYRQAPGKQRELVAAIHSGGSTNYADSVRGRFTISRDNAKNTVYLQMNSLKPEDTAVYYCNVKDYGAVLYEYDYWGQGTQVTVSS
Q: Which “Complex formation with agonist-bound β2AR on SEC” value (β2AR [1]) does the source give for B1 here?
A: complex formation

Q: And the “mBBr fluorescence change of isoproterenol-bound β2AR with nanobody (active state)” value (β2AR [2]; listed as 65)?
A: Comparable results; also recorded: stabilize a more active state

Q: And the “Enhancement of β2AR affinity for the agonist isoproterenol in the presence of the nanobody” value (from here on “Enhancement of β2AR affinity”) (β2AR [3])?
A: two- to thirty-fold

B2: NB67: β2AR-specific nanobody, SEQ ID NO:20 (protein, listed as Lama glama)
VHH: QVQLQESGGGLVQAGGSLRLSCAASGTISSFIAMGWYRQSPGKQRELVAGITSGGETNYEDSVKGRFTISRDNAKNTLYLQMNTLKPEDTAVYYCNAQVFADIFNLINYWGQGTQVTVSS
Q: What does the source list for B2?
A: Complex formation with agonist-bound β2AR on SEC (β2AR [1]): complex formation; mBBr fluorescence change of isoproterenol-bound β2AR with nanobody (active state) (β2AR [2]; listed as 67): Comparable results; also recorded: stabilize a more active state; Enhancement of β2AR affinity for the agonist isoproterenol in the presence of the nanobody (β2AR [3]): two- to thirty-fold

B3: NB69: β2AR-specific nanobody, SEQ ID NO:26 (protein, listed as Lama glama)
VHH: QVQLQESGGGLVQPGGSLRLSCAASGSIFSINAMGWYRQAPGKQRDLVASITSGGSTNYADSVKGRFTISRDNAKNTVYLQMNSLKPEDTAVYYCNVQGTGPSSWLFNEYDYWGQGTQVTVSS
Q: What does the source list for B3?
A: Complex formation with agonist-bound β2AR on SEC (β2AR [1]): complex formation; mBBr fluorescence change of isoproterenol-bound β2AR with nanobody (active state) (β2AR [2]; listed as 69): Comparable results; also recorded: stabilize a more active state; Enhancement of β2AR affinity for the agonist isoproterenol in the presence of the nanobody (β2AR [3]): two- to thirty-fold

B4: NB71: β2AR-specific nanobody, SEQ ID NO:25 (protein, listed as Lama glama)
VHH: QVQLQESGGGLVQPGGSLRLSCAASGFAFSSYELRWYRQAPGKQHELVAGITTGGNTYYADSVKGRFTISRDNAKNTVYLQMSNLRPEDTAVYACNANWDLLSDYWGQGTQVTVSS
Q: Which “Complex formation with agonist-bound β2AR on SEC” value (β2AR [1]) does the source give for B4 here?
A: complex formation

Q: What about the “mBBr fluorescence change of isoproterenol-bound β2AR with nanobody (active state)” value (β2AR [2]; listed as 71) of the same molecule?
A: Comparable results; also recorded: stabilize a more active state

Q: And the “Enhancement of β2AR affinity” value (β2AR [3])?
A: two- to thirty-fold

B5: NB72: β2AR-specific nanobody, probably CA2772, SEQ ID NO:24; CA3472 carries the same short notation (protein, listed as Lama glama)
VHH: QVQLQESGGGLVQPGGSLRLSCAASGFTFSGYAMNWVRQAPGKGPEWVSAINSGGGSTSYADSVKGRFTISRDNAKNTVYLQMNSLKPEDTAVYYCHARDIYSDFLGQYEYDYWGQGTQVTVSS
Q: What does the source list for B5?
A: Complex formation with agonist-bound β2AR on SEC (β2AR [1]): complex formation; mBBr fluorescence change of isoproterenol-bound β2AR with nanobody (active state) (β2AR [2]; listed as 72): Comparable results; also recorded: stabilize a more active state; Enhancement of β2AR affinity for the agonist isoproterenol in the presence of the nanobody (β2AR [3]): two- to thirty-fold

B6: NB80: β2AR-specific nanobody, SEQ ID NO:4; lead nanobody stabilizing the active state (protein, listed as Lama glama)
VHH: QVQLQESGGGLVQAGGSLRLSCAASGSIFSINTMGWYRQAPGKQRELVAAIHSGGSTNYANSVKGRFTISRDNAANTVYLQMNSLKPEDTAVYYCNVKDYGAVLYEYDYWGQGTQVTVSS
Q: Which results are given for B6?
A: Apparent melting temperature for β2AR with Nb80 (β2AR [4]; DDM-solubilized, isoproterenol-bound β2AR, 2:1 molar excess of Nb80): 24 °C; Increase of the melting temperature (Tm) of the agonist-bound receptor (β2AR [4]; isoproterenol (10 μM)-bound β2AR with versus without Nb80): 12 °C; Conformational selectivity of Nb80 binding to human β1AR (human β1AR): selectively binds the active conformation; Effect of Nb80 on affinity of the agonist isoproterenol for β1AR (human β1AR; [3H]-DHA competition): increased affinity; Effect of Nb80 on β1AR affinity for CGP20712A (human β1AR; [3H]-DHA competition): does not change the affinity; Complex formation with agonist-bound β2AR on SEC (β2AR [1]): β2AR-agonist-Nb80 complex formation; Effect of Nb80 on unrelated receptors [5]: No such effect; mBBr fluorescence change of isoproterenol-bound β2AR with nanobody (active state) (β2AR [2]): larger changes were observed when both agonist and nanobody were added together; also recorded: stabilizes a more active state; mBBr fluorescence change of β2AR with nanobody alone (β2AR [2]; Nb80 alone, no agonist): relatively small changes in fluorescence; Enhancement of β2AR affinity for the agonist isoproterenol in the presence of the nanobody (β2AR [3]): two- to thirty-fold; Increase of isoproterenol affinity in the presence of Nb80 (β2AR-T4L; β2AR-T4L/HDL with Nb80 versus without): 60 fold; Effect of Nb80 on affinity for the inverse agonist ICI-118,551 (β2AR-T4L; β2AR-T4L/HDL, ICI-118,551 competing against [3H]-DHA): does not increase the affinity; Effect on bimane fluorescence in the presence of isoproterenol (β2AR [6]): increased; Increase of isoproterenol affinity in the presence of Nb80 (β2AR [7]; β2AR/HDL with Nb80 versus without): 95 fold; Effect of Nb80 on affinity for the inverse agonist ICI-118,551 (β2AR [7]; β2AR/HDL, ICI-118,551 competing against [3H]-DHA): does not increase the affinity; also recorded: little effect; Effect of Nb80 on β2AR affinity for agonists and antagonists (β2AR [8]): increases β2AR affinity for agonists but not for antagonists; Effect on temperature-induced aggregation of the agonist-bound receptor (β2AR [9]): protects the agonist-bound receptor against temperature-induced aggregation

B7: NB84: β2AR-specific nanobody, probably CA2784, SEQ ID NO:29; CA3484 carries the same short notation (protein, listed as Lama glama)
VHH: QVQLQESGGGLVQAGGSLRLSCAASGSIFSINAMGWYRQAPGKQRELVAAITSGGSTTYADSVKGRFTVSRDNAKNTVYLQMIRLKPEDTAVYYCHVRDIYSDFLGQYEYDYWGQGTQVTVSS
Q: With B7 as the molecule, how does the “Complex formation with agonist-bound β2AR on SEC” value (β2AR [1]) read?
A: complex formation

Q: And the “mBBr fluorescence change of isoproterenol-bound β2AR with nanobody (active state)” value (β2AR [2]; listed as 84)?
A: Comparable results; also recorded: stabilize a more active state

Q: What about the “Enhancement of β2AR affinity” value (β2AR [3]) of the same molecule?
A: two- to thirty-fold
